Assay results reported in patent publication US20210285013A1.

Target: human ApoB100 (human) (UniProt P04114)
Assay: cell-based or functional assay

Chain of UniProt P04114 (P04114 28-4563 limits assumed): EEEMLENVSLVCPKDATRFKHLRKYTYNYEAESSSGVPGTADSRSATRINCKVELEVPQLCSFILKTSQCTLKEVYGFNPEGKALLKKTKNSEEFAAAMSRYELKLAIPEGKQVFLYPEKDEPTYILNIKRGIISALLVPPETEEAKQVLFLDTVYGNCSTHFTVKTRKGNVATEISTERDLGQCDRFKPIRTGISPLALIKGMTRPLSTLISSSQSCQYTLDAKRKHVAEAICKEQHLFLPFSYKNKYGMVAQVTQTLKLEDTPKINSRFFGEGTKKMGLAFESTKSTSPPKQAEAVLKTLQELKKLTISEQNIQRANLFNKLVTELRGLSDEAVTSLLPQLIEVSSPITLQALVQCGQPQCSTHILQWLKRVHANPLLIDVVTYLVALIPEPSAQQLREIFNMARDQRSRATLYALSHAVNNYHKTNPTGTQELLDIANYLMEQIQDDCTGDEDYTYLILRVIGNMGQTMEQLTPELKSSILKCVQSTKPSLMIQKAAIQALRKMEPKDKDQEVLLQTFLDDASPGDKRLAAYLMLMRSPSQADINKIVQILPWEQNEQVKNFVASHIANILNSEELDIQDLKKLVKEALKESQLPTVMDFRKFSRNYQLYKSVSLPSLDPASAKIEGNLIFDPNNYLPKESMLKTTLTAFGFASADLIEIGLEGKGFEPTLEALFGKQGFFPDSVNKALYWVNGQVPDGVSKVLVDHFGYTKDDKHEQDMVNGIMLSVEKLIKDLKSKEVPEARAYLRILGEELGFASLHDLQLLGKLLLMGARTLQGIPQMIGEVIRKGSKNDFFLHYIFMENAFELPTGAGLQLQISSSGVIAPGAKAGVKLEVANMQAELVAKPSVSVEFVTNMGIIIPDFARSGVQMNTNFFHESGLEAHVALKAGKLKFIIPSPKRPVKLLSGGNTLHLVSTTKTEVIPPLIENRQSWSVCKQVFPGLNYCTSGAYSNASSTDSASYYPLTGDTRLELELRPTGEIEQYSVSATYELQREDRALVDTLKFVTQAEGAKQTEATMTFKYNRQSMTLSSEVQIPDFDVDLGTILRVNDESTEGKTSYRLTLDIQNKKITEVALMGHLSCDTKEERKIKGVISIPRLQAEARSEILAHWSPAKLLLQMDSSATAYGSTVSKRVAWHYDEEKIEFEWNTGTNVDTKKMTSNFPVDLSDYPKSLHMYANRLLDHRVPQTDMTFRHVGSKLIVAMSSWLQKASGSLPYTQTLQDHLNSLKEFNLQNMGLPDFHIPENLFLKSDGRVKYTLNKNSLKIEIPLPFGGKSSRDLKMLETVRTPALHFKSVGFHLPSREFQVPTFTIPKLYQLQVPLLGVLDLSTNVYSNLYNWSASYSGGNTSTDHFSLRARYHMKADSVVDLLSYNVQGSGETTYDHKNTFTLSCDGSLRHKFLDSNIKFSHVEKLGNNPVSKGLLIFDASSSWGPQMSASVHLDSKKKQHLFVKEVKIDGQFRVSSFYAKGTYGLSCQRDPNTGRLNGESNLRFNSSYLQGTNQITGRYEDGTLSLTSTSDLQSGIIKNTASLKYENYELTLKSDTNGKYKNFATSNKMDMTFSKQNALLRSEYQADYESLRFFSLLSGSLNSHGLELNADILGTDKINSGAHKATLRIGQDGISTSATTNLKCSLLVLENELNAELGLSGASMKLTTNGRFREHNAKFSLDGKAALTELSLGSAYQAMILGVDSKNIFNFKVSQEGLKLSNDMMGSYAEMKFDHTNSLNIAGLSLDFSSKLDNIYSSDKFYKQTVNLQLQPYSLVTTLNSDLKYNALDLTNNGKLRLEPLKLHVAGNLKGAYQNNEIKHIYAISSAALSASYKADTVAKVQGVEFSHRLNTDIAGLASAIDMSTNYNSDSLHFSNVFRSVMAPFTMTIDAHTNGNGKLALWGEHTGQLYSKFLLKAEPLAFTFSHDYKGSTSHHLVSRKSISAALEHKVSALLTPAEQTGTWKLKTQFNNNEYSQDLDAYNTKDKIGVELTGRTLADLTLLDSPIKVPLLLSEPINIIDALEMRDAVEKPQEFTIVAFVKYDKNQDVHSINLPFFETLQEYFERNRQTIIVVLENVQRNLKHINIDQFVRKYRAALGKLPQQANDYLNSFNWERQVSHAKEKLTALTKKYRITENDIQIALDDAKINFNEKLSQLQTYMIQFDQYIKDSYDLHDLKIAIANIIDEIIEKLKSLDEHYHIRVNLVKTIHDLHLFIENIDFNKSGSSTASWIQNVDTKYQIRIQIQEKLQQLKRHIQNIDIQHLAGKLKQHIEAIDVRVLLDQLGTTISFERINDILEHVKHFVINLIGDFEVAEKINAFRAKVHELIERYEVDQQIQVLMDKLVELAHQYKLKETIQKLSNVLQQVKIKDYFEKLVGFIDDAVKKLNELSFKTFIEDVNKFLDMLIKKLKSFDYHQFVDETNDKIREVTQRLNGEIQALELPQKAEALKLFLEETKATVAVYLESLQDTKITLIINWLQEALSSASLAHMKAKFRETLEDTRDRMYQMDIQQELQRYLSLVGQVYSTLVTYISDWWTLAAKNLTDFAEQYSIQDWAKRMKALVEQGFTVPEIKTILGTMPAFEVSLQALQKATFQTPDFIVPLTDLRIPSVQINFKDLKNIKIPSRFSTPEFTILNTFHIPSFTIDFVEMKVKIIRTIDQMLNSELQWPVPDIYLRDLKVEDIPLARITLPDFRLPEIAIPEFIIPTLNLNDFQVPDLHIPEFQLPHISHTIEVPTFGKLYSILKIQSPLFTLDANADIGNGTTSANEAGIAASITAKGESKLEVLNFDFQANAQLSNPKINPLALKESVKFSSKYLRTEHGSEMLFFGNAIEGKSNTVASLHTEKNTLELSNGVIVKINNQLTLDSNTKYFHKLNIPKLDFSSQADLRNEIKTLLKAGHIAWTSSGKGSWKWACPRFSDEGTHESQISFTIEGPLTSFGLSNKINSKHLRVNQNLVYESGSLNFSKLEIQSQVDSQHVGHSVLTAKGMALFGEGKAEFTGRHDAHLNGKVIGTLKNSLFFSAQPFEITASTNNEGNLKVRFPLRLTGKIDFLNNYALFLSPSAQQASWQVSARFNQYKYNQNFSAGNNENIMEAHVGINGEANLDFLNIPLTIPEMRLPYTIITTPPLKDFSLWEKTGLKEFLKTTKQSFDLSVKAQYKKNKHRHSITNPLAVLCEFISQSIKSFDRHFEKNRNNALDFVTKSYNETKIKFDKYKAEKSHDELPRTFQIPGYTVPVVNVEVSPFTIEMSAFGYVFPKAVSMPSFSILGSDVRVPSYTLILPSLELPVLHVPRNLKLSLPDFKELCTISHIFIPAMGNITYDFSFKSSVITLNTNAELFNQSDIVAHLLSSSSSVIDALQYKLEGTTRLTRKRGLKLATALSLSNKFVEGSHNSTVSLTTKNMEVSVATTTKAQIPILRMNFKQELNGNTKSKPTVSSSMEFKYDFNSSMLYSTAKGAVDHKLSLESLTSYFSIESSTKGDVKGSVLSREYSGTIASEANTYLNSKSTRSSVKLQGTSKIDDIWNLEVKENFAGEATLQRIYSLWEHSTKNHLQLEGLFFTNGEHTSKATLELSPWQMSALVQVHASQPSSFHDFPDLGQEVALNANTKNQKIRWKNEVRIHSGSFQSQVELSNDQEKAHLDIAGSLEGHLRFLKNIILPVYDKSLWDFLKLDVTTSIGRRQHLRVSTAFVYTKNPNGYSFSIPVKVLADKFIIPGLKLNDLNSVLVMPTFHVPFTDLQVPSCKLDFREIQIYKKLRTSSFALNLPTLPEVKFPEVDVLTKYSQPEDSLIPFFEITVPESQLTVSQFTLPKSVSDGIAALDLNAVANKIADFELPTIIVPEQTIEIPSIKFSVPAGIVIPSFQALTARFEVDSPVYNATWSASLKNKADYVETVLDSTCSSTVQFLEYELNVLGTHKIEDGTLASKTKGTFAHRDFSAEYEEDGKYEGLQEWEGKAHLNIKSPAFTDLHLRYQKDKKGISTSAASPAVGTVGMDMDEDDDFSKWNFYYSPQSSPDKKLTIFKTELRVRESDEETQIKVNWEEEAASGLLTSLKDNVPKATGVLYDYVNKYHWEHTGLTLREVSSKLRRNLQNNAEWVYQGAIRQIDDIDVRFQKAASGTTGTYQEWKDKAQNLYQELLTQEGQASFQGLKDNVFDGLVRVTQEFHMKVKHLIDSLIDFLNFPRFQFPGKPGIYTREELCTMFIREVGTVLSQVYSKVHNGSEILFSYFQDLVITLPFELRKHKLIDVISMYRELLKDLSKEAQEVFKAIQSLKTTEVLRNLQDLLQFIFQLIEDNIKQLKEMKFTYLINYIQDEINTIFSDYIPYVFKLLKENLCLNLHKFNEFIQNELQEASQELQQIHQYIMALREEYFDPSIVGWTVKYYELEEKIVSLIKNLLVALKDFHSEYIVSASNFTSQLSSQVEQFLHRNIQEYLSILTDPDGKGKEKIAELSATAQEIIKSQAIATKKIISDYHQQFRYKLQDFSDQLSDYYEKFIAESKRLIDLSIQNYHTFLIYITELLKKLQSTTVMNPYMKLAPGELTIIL

human low density lipoprotein receptor (hLDLR) (from UniProt P01130 22-860)
reduction of serum cholesterol in LAHB mice after AAV8.TBG.hLDLR: 30%
